{"source": "FireProtDB (doi:10.1016/s0022-2836(03)00249-3)", "details": "Saccharomyces cerevisiae (strain ATCC 204508 / S288c), 25 °C, GdnHCl, reversible: yes, whole UniProt chain shown", "key": {"[1]": {"details": "pH 7, Fluorescence, Tris-HCl 50 mM, NaCl 0.2 M, transition: 2"}, "[2]": {"details": "pH 7.5, Fluorescence, Tris-HCl 50 mM, NaCl 0.2 M, transition: 2"}, "[3]": {"details": "pH 7.5, Fluorescence, Tris-phosphate 50 mM, NaCl 0.2 M, transition: 2"}, "[4]": {"details": "pH 8, CD, Na2HPO4-KH2PO4 50 mM, NaCl 0.15 M, transition: 3"}, "[5]": {"details": "pH 8, Fluorescence, Na2HPO4-KH2PO4 50 mM, NaCl 0.15 M, transition: 2"}, "[6]": {"details": "pH 8, Fluorescence, Tris-HCl 50 mM, NaCl 0.2 M, transition: 2"}, "[7]": {"details": "pH 8, Fluorescence, Tris-HCl 50 mM, NaCl 0.2 M, transition: 3"}, "[8]": {"details": "pH 8.4, Fluorescence, Tris-HCl 50 mM, NaCl 0.2 M, transition: 2"}, "[9]": {"details": "pH 8.5, Fluorescence, Na2HPO4-KH2PO4 50 mM, NaCl 0.15 M, transition: 2"}}, "note": "Values joined by “and” are separate entries in the source; they are usually repeats but may differ in a detail not shown here. Equal values may be shown once.", "data": [{"protein": "Transcriptional regulator URE2 wild type, P23202 (protein) MMNNNGNQVSNLSNALRQVNIGNRNSNTTTDQSNINFEFSTGVNNNNNNNSSSNNNNVQNNNSGRNGSQNNDNENNIKNTLEQHRQQQQAFSDMSHVEYSRITKFFQEQPLEGYTLFSHRSAPNGFKVAIVLSELGFHYNTIFLDFNLGEHRAPEFVSVNPNARVPALIDHGMDNLSIWESGAILLHLVNKYYKETGNPLLWSDDLADQSQINAWLFFQTSGHAPMIGQALHFRYFHSQKIASAVERYTDEVRRVYGVVEMALAERREALVMELDTENAAAYSAGTTPMSQSRFFDYPVWLVGDKLTIADLAFVPWNNVVDRIGINIKIEFPEVYKWTKHMMRRPAVIKALRGE", "values": [{"measurement": "denaturant m value", "setting": "[1]", "result": 3.2, "unit": "kcal/mol/M"}, {"measurement": "denaturant midpoint (higher = more stable)", "setting": "[1]", "result": 2.4, "unit": "M"}, {"measurement": "unfolding free energy", "setting": "[1]", "result": 17, "unit": "kcal/mol"}, {"measurement": "unfolding free energy", "setting": "pH 7, Fluorescence, Tris-HCl 50 mM, NaCl 0.2 M, transition: 3", "result": 7.9, "unit": "kcal/mol"}, {"measurement": "denaturant m value", "setting": "[2]", "result": 3.6, "unit": "kcal/mol/M"}, {"measurement": "denaturant midpoint (higher = more stable)", "setting": "[2]", "result": 2.64, "unit": "M"}, {"measurement": "unfolding free energy", "setting": "[2]", "result": 20, "unit": "kcal/mol"}, {"measurement": "unfolding free energy", "setting": "pH 7.5, Fluorescence, Tris-HCl 50 mM, NaCl 0.2 M, transition: 3", "result": "8.8 kcal/mol and 8.5 kcal/mol and 8.9 kcal/mol"}, {"measurement": "denaturant m value", "setting": "[3]", "result": "4.8 kcal/mol/M and 5.2 kcal/mol/M"}, {"measurement": "denaturant midpoint (higher = more stable)", "setting": "[3]", "result": "2.66 M and 2.53 M"}, {"measurement": "unfolding free energy", "setting": "[3]", "result": "21 kcal/mol and 22 kcal/mol"}, {"measurement": "unfolding free energy", "setting": "pH 7.5, Fluorescence, Tris-phosphate 50 mM, NaCl 0.2 M, transition: 3", "result": 9, "unit": "kcal/mol"}, {"measurement": "denaturant midpoint (higher = more stable)", "setting": "[4]", "result": "2.33 M and 3.54 M"}, {"measurement": "unfolding free energy", "setting": "[4]", "result": 7, "unit": "kcal/mol"}, {"measurement": "denaturant m value", "setting": "[5]", "result": 4, "unit": "kcal/mol/M"}, {"measurement": "denaturant midpoint (higher = more stable)", "setting": "[5]", "result": 2.48, "unit": "M"}, {"measurement": "unfolding free energy", "setting": "[5]", "result": 19, "unit": "kcal/mol"}, {"measurement": "unfolding free energy", "setting": "pH 8, Fluorescence, Na2HPO4-KH2PO4 50 mM, NaCl 0.15 M, transition: 3", "result": "6.9 kcal/mol and 6.8 kcal/mol"}, {"measurement": "denaturant m value", "setting": "[6]", "result": "3 kcal/mol/M and 4.1 kcal/mol/M and 6 kcal/mol/M"}, {"measurement": "denaturant midpoint (higher = more stable)", "setting": "[6]", "result": "3 M and 2.84 M and 2.66 M"}, {"measurement": "unfolding free energy", "setting": "[6]", "result": "16 kcal/mol and 19 kcal/mol"}, {"measurement": "denaturant m value", "setting": "[7]", "result": "8 kcal/mol/M and 3 kcal/mol/M"}, {"measurement": "denaturant midpoint (higher = more stable)", "setting": "[7]", "result": "3.23 M and 2.67 M"}, {"measurement": "unfolding free energy", "setting": "[7]", "result": 8, "unit": "kcal/mol"}, {"measurement": "denaturant m value", "setting": "[8]", "result": "5 kcal/mol/M and 5.5 kcal/mol/M and 6.8 kcal/mol/M"}, {"measurement": "denaturant midpoint (higher = more stable)", "setting": "[8]", "result": "3.06 M and 2.95 M and 2.93 M"}, {"measurement": "unfolding free energy", "setting": "[8]", "result": "23 kcal/mol and 24 kcal/mol"}, {"measurement": "denaturant m value", "setting": "[9]", "result": 5, "unit": "kcal/mol/M"}, {"measurement": "denaturant midpoint (higher = more stable)", "setting": "[9]", "result": 2.57, "unit": "M"}, {"measurement": "unfolding free energy", "setting": "[9]", "result": 22, "unit": "kcal/mol"}, {"measurement": "unfolding free energy", "setting": "pH 8.5, Fluorescence, Na2HPO4-KH2PO4 50 mM, NaCl 0.15 M, transition: 3", "result": "7.6 kcal/mol and 7.4 kcal/mol and 7.5 kcal/mol"}]}]}
